Experimental findings from US20260159575A1 are described below.

In this test the target is MTBR-tau354 (human) (UniProt P10636). Nature of the test: target engagement in human CSF, ex vivo; multiple dose 3000 mg Q4W, E2814 CSF concentrations 200-400 ng/mL; bound/(free+bound) proxy peptide.

B1: antibody E2814 (antibody, human IgG1, kappa, V domains shown)
VH: EVQLLESGGGLVQPGGSLRLSCAASGYTFTTYWITWVRQAPGKGLEWVSDIYPGSSISNYNEKFKSRFTISVDNSKNTLYLQMNSLRAEDTAVYYCAREDGYDAWFAYWGQGTLVTVSS
VL: DIQMTQSPSSLSASVGDRVTITCRSSQSILHSNGNTYLEWYQQKPGKAPKLLISKVSNRFSGVPSRFSGSGSGTDFTLTISSLQPEDFATYYCFQGSHVPFTFGQGTKLEIKR
B1: the target engagement (E2814-bound MTBR-tau as percent of total free plus bound) was 70%.
